Literature values, collected in article PMC8262464.

Target: TLR2 (Homo sapiens) (UniProt O60603)
Experiment: SPR

Sequence of UniProt O60603 (O60603 21-588): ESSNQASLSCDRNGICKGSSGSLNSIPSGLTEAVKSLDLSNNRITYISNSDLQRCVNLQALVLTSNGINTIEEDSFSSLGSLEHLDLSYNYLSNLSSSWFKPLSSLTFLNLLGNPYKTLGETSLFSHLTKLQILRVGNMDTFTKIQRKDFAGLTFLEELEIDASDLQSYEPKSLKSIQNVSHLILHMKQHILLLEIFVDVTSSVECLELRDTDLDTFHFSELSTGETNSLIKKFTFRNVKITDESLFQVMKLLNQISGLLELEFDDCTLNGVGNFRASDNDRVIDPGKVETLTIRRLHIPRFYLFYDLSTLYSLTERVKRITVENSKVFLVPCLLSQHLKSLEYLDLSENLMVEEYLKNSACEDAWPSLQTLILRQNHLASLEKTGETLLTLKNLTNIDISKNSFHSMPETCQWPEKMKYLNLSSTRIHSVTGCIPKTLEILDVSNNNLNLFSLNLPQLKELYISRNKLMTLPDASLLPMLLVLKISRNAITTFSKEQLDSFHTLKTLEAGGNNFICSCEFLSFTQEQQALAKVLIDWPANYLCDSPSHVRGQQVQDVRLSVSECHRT

For MMP2 (from UniProt P08253), the Kd is given as 32.2 nM.
